As a reminder, the Kd is a measure of binding affinity in units of concentration. A word on the koff: it is the first-order rate constant of dissociation. Broadly, the kon is a measure of how fast the partners come together.

Assay [1] has as its target T1, recombinant cynomolgus E11 protein (cynomolgus monkey).
T1 chain: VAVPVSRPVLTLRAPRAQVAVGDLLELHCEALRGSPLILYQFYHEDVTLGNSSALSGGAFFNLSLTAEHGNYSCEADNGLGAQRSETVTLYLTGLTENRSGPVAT
As to the kind of experiment: SPR, mIgG2a captured, monovalent. (In general: SPR reads the build-up and loss of mass on a sensor chip optically.)

Assay [2] concerns the target T1, recombinant cynomolgus E11 protein. As to the kind of experiment: SPR, mIgG2a captured, monovalent.
For assay [3], the target named is T2, cynomolgus monkey FcRH5, full-length (cynomolgus monkey).
T2 construct: also called cyno FcRH5; Cynomolgus FcRH5
T2 chain: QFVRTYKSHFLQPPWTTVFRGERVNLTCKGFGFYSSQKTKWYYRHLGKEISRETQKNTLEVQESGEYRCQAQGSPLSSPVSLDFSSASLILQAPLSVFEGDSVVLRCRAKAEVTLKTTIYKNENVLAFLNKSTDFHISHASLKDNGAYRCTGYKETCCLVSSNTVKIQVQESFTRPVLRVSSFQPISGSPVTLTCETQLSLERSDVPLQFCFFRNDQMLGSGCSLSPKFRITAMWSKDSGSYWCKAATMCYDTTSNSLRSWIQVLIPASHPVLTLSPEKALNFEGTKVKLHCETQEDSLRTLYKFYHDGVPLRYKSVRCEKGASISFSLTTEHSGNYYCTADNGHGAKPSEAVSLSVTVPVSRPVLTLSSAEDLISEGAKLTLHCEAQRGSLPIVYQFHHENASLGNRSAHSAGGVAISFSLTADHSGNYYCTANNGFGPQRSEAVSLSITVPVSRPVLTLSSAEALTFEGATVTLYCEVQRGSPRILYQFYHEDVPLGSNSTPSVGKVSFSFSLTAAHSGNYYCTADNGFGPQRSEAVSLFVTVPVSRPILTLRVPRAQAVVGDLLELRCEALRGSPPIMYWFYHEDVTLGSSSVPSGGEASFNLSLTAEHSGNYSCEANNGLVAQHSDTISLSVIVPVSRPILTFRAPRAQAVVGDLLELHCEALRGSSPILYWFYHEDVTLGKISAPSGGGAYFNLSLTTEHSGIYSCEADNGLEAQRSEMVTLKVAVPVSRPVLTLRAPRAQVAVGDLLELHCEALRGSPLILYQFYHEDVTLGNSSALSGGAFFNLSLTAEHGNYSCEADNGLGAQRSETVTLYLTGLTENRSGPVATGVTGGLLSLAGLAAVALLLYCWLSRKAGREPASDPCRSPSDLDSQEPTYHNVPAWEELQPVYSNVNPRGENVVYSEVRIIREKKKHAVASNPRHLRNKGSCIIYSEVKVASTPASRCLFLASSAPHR
Nature of the assay: FACS, SVT2 cells, TDB 3 µg/ml. The protocol: Human FcRH5, cyno FcRH5, human FcRH1, FcRH2, FcRH3, and FcRH4 transfected mouse SVT2 cells were used to test binding and cross-reactivity of FcRH5 TDBs. The method was carried out as follows. Cultured SVT2 cells were lifted using non-enzyme cell dissociation buffer (Sigma, #C5914). 1×10⁵ cells were suspended in 100 μL and incubated with FcRH5 TDBs at 3 μg/ml. Cells were then washed with FACS buffer (PBS, 1% BSA, 2 mM EDTA) and incubated with goat-anti-human Fc PE (Jackson Immunoresearch, #109-116-170) at a 1:100 dilution. Cells were washed twice with FACS buffer before flow cytometry analysis was carried out on a FACSCalibur.
In general terms: In flow cytometry, cells or beads pass a laser one at a time.

Assay [4] concerns the target T3, soluble cynomolgus FcRH5 protein fragment (cynomolgus monkey).
T3 chain: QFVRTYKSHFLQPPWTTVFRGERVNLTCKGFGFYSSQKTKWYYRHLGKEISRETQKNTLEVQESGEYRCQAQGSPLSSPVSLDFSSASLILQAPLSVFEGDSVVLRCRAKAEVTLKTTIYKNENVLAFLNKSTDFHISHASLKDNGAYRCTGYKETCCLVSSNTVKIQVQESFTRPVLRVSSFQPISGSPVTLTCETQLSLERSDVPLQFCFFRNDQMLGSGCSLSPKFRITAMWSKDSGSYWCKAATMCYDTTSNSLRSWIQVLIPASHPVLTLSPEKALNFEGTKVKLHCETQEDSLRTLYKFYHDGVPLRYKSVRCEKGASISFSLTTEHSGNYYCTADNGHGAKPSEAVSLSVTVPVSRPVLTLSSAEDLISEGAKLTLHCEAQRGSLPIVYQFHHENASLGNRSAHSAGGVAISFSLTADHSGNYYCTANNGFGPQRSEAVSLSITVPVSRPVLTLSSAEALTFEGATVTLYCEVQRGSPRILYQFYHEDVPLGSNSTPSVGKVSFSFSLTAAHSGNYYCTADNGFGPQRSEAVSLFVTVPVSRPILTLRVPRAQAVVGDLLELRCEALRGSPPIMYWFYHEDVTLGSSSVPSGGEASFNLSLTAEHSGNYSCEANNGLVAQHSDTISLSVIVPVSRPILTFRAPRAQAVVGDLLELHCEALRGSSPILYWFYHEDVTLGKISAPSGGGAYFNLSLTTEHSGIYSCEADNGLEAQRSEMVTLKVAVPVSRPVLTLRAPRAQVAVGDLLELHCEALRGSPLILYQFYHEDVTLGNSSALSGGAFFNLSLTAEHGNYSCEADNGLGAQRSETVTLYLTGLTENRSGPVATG
Nature of the assay: SPR, hIgG capture, 1:1 model.

Assay [5] has as its target T3, soluble cynomolgus FcRH5 protein …. As to the kind of experiment: BIACORE (FIG. 15).
Assay [6] has as its target T2, cynomolgus monkey FcRH5, full-length. As to the kind of experiment: flow cytometry, SVT2-cyno FcRH5 cells.
Assay [7] has as its target T3, soluble cynomolgus FcRH5 protein …. As to the kind of experiment: BIACORE, hIgG capture, 1:1 model, monovalent.
The target in assay [8] is T4, human FcRH5, full-length (human, UniProt Q96RD9 16-977).
T4 sequence: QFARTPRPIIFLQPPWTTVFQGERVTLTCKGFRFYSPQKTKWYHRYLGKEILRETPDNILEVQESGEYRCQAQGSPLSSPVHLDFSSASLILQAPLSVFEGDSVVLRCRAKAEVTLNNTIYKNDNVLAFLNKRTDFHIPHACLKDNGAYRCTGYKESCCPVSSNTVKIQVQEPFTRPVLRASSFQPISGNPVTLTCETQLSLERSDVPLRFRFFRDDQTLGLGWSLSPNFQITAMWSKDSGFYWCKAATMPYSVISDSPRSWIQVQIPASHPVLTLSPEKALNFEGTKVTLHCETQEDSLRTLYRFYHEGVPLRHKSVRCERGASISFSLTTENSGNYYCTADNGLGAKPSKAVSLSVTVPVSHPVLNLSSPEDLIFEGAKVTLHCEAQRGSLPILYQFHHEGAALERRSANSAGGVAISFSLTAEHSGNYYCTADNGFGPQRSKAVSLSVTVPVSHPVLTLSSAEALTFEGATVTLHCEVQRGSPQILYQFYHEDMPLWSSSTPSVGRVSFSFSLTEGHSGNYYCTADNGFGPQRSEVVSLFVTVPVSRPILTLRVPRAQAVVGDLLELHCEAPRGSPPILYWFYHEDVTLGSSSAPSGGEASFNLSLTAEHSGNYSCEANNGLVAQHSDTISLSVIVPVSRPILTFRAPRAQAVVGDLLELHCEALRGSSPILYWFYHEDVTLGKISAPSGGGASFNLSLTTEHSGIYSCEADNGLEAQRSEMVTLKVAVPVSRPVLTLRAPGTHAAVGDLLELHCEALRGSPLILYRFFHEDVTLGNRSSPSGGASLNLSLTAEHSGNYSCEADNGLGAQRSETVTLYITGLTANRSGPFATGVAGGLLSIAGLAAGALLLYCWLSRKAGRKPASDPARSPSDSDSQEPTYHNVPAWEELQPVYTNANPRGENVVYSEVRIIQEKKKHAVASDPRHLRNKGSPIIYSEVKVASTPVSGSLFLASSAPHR
As to the kind of experiment: cell-based or functional assay.

Changes are numbered by the printed parent chain. Names may count otherwise.

B1: 15G8 (antibody, mouse IgG2a, V domains shown)
VH: EVQLQQSGPELVKPGASVKMSCKASGYTFTNYVIHWMKQKPGQGLEWIGYISPYNDYTKYNEKFEGKATLTSDKSSNTAYMELSSLTSEDSAVYYCARRDYYGSSDYWGQGTTLTVSS
VL: QIVLTQSPAIMSASPGEKVTMTCSASSSVDYMHWYQQKSGTSPKKWIYDTSKLASGVPARFSGSGSGTSYSLTIGSMEAEDAATYYCQQWSSNPPTFGGGTKLEIK
notes: mouse mAb, Campaign C; recombinant murine IgG2a for BIACORE; also called mAb 15G8
As for B1, in assay [1], the “KD difference between human and cynomolgus E11 domains” value is around 20 fold. Also, in assay [2], the Kd came out at 9.1 nM.

B2: 17B1 (antibody, mouse IgG2a, V domains shown)
VH: QVQLQQSGPELVRPGVSVKISCKGSGYTFTHYAMHWVKQSHTKSLEWIGMISSSSGNTNFNQKFMDKATMTVDKSSTTAYLELARLTFGDSAIYYCARWSYYALFDYWGQGTTVTVSS
VL: ENVLTQSPAIMSASPGEKVTMTCSADSSVDYIHWYQQKSNTSPKLWIYDTSKLASGVPGRFSGSGSGNSYSLTISSMEAEDFATYYCFQGSGYPLTFGSGTKLELK
notes: mouse mAb, Campaign C; recombinant murine IgG2a for BIACORE
Regarding B2, the Kd in assay [2] was determined as 27 nM.

B3: 1G7.v1.4/38E4.v1 TDB (bispecific antibody, V domains shown)
VH 1: EVQLVESGPGLVKPSETLSLTCTVSGFSLTRFGVHWVRQPPGKGLEWLGVIWRGGSTDYNAAFMSRLTISKDNSKNQVSLKLSSVTAADTAVYYCSNHYYGSSDYALDNWGQGTLVTVSS
VL 1: DIQMTQSPSSLSASVGDRVTITCKASQDVRNLVVWFQQKPGKAPKLLIYSGSYRYSGVPSRFSGSGSGTDFTLTISSLQPEDFATYYCQQHYSPPYTFGQGTKVEIK
VH 2: EVQLVQSGAEVKKPGASVKVSCKASGFTFTSYYIHWVRQAPGQGLEWIGWIYPENDNTKYNEKFKDRVTITADTSTSTAYLELSSLRSEDTAVYYCARDGYSRYYFDYWGQGTLVTVSS
VL 2: DIVMTQSPDSLAVSLGERATINCKSSQSLLNSRTRKNYLAWYQQKPGQSPKLLIYWTSTRKSGVPDRFSGSGSGTDFTLTISSLQAEDVAVYYCKQSFILRTFGQGTKVEIK
notes: knob-into-hole full-length TDB; also called 1G7.v1.4 TDB
B3: in assay [3], the binding result was “binds”. In assay [4], the Kd stood at 6.3 nM, the koff came out at 0.0008 s⁻¹ and the kon was 100000 M⁻¹ s⁻¹.

B4: hu1G7.v93/38E4.v1 TDB (bispecific antibody, V domains shown)
VH 1: B3 VH 1 with L29T, M64V, S103P
VL 1: B3 VL 1 with R30S
VH 2: B3 VH 2
VL 2: B3 VL 2
notes: knob-into-hole full-length TDB; also called 1G7.v93 TDB
On to B4, for which, in assay [5], the Kd came to 8.1 nM.

B5: 1G7.v85/38E4.v1 TDB (bispecific antibody, V domains shown)
VH 1: B3 VH 1 with M64V
VL 1: B3 VL 1
VH 2: B3 VH 2
VL 2: B3 VL 2
notes: knob-into-hole full-length TDB; also called 1G7.v85 TDB; FcRH5 TDB
As for B5, in assay [6], the binding result was “binds”. In assay [4], the Kd was determined as 6.8 nM, the off-rate (koff) worked out at 0.0008 s⁻¹ and the kon is 100000 M⁻¹ s⁻¹. The molecule further came in with a Kd in assay [5] of 7.8 nM. Moreover, the Kd in assay [7] worked out at 6.76 nM. Further, in assay [8], the “killing of MOLP-2 cells, EC50” value was determined as 0.058 nM; the “killing of SVT2-FcRH5 cells, IC50, in DMSO” value was 0.006 nM; the “killing of SVT2-FcRH5 cells, IC50, in buffer” value turned out to be 0.007 nM; the “killing of SVT2-FcRH5 cells, IC50, with 0.1 µM dexamethasone” value amounted to 0.016 nM. In assay [8], the “killing of SVT2-FcRH5 cells, IC50, with 1 µM dexamethasone” value was found to be 0.025 nM and the “killing of human bone marrow plasma cells, EC50” value was 0.085 to 0.18 nM.

B6: hu1G7.v85 (hIgG1) (antibody, V domains shown)
VH: B3 VH 1 with M64V
VL: B3 VL 1
notes: bivalent human IgG1; also called hu1G7.v1.4.M64V
In assay [4], B6 displayed a Kd of 7.2 nM, a koff of 0.001 s⁻¹ and a kon of 100000 M⁻¹ s⁻¹.

B7: hu1G7.v1.4 (hIgG1) (antibody, V domains shown)
VH: B3 VH 1
VL: B3 VL 1
notes: human IgG1
In assay [4], B7 had a Kd of 7.7 nM, a koff of 0.001 s⁻¹ and a kon of 100000 M⁻¹ s⁻¹.

The values are drawn from patent US20220048993A1 (published 2022).
